The record followed here is PMC10377191, “The Crystal Structure of the Hsp90-LA1011 Complex and the Mechanism by Which LA1011 May Improve the Prognosis of Alzheimer’s Disease” (Biomolecules, 2023).

The assay addresses T1, yeast Hsp90 (yeast, UniProt P02829 1-709).
T1 construct: yeast Hsp90 as used in the ITC experiments; probably the full-length protein was used (surmise)
The experiment in a line: ITC; 400 μM FKBP51 or FKBP51-Δ7He injected into 30 μM Hsp90; 20 mM Tris pH 7.5, 5 mM NaCl, 30 °C. To be noted: both partners purified. (In general: In ITC the heat of successive injections is recorded.)

T1 sequence (P02829 whole entry): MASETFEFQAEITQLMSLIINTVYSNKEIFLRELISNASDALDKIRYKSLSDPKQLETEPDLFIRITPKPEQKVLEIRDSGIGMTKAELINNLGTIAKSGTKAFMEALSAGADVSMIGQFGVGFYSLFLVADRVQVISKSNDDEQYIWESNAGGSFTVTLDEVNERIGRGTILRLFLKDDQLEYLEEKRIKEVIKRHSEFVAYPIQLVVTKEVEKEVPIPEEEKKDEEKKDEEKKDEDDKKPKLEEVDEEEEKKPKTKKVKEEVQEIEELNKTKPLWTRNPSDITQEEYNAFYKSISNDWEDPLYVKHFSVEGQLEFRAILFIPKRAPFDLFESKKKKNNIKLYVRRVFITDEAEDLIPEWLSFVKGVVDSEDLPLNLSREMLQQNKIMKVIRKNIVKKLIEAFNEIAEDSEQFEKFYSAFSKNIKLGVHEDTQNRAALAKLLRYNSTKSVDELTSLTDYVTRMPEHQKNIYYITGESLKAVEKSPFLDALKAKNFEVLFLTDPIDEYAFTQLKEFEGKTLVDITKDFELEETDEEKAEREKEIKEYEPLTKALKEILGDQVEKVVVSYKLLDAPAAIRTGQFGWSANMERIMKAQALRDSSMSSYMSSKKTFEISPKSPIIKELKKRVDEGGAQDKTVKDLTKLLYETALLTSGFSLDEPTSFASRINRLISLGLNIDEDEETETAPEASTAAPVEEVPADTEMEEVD

B1: FKBP51-Δ7He (lacking residues 401–457 of the extended 7th helix of the TPR domain) (domain or fragment, UniProt Q13451 1-400, looked up)
chain: MTTDEGAKNNEESPTATVAEQGEDITSKKDRGVLKIVKRVGNGEETPMIGDKVYVHYKGKLSNGKKFDSSHDRNEPFVFSLGKGQVIKAWDIGVATMKKGEICHLLCKPEYAYGSAGSLPKIPSNATLFFEIELLDFKGEDLFEDGGIIRRTKRKGEGYSNPNEGATVEIHLEGRCGGRMFDCRDVAFTVGEGEDHDIPIGIDKALEKMQREEQCILYLGPRYGFGEAGKPKFGIEPNAELIYEVTLKSFEKAKESWEMDTKEKLEQAAIVKEKGTVYFKGGKYMQAVIQYGKIVSWLEMEYGLSEKESKASESFLLAAFLNLAMCYLKLREYTKAVECCDKALGLDSANEKGLYRRGEAQLLMNEFESAKGDFEKVLEVNPQNKAARLQISMCQKKAKE
notes: FKBP51 lacking residues 401–457 (the helical extension of the 7th helix of the TPR domain), that is, ending at residue 400; also called FKBP51-Δ7He mutant; FKBP51 mutant lacking the helical extension; source: gift of constructs from D. Southworth
As to B1, the Kd (commonly the free concentration of one partner at which half of the binding sites on the other are occupied at equilibrium, for simple one-to-one binding) amounted to 11.6 µM and the stoichiometry N (commonly the number of molecules, sites or subunits per partner or assembly) worked out at 1.25 FKBP51-Δ7He per Hsp90.
